Measured values taken from IntAct's records for PubMed 17187077.

B1: Nuclear receptor subfamily 2 group C member 1 (Mus musculus), Q505F1 (parent)
chain: MATIEEIAHQIIDQQMGEIVTEQQTGQKIQIVTALDHSTQGKQFILANHEGSTPGKVFLTTPDAAGVNQLFFTSPDLSAPHLQLLTEKSPDQGPNKVFDLCVVCGDKASGRHYGAITCEGCKGFFKRSIRKNLVYSCRGSKDCVINKHHRNRCQYCRLQRCIAFGMKQDSVQCERKPIEVSREKSSNCAASTEKIYIRKDLRSPLAATPTFVTDSETARSAGLLDSGMFVNIHPSGIKTEPAMLMAPDKAESCQGDLSTLASVVTSLANLGKAKDLSHCGGDMPVVQSLRNGDTSFGAFHHDIQTNGDVSRAFDTLAKALTPGESSACQSPEEGMEGSPHLIAGEPSFVEKEGPLLSESHVAFRLTMPSPMPEYLNVHYIGESASRLLFLSMHWALSIPSFQALGQENSISLVKAYWNELFTLGLAQCWQVMNVATILATFVNCLHSSLQQDKMSPERRKSLMEHIFKLQEFCNSMVKLCIDGHEYAYLKAIVLFSPDHPGLENMELIERFQEKAYVEFQDYITRTYPDDTYRLSRLLLRLPALRLMNATITEELFFKGLIGNVRIDSVIPHILKMEPADYNSQIIGHSL

Variants of: B1
Details: with pias1_mouse Pias1, O88907
Chain of pias1_mouse Pias1, O88907 (O88907 whole entry): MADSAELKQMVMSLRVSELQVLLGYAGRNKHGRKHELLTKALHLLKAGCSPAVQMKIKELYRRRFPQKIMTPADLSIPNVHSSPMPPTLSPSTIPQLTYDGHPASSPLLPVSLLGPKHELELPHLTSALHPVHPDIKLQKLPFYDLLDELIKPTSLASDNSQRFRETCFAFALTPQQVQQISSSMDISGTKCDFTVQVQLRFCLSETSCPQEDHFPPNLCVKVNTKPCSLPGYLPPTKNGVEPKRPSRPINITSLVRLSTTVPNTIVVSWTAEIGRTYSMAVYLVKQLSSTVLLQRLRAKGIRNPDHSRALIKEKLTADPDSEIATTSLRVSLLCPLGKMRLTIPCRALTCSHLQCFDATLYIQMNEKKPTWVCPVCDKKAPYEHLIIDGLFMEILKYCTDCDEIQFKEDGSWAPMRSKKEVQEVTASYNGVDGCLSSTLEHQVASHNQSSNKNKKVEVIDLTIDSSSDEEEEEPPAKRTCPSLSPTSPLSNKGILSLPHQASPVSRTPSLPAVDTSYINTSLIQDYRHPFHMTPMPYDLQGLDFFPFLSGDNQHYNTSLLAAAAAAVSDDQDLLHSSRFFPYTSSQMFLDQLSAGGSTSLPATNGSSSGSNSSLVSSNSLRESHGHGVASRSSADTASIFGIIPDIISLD

effect of a mutation on the interaction	Variant
decreasing interaction	MATIEEIAHQIIDQQMGEIVTEQQTGQKIQIVTALDHSTQGKQFILANHEGSTPGKVFLTTPDAAGVNQLFFTSPDLSAPHLQLLTEKSPDQGPNKVFDLCVVCGDKASGRHYGAITCEGCKGFFKRSIRKNLVYSCRGSKDCVINKHHRNRCQYCRLQRCIAFGMKQDSVQCERKPIEVSREKSSNCAASTEKIYIRKDLRSPLAATPTFVTDSETARSAGLLDSGMFVNIHPSGIATEPAMLMAPDKAESCQGDLSTLASVVTSLANLGKAKDLSHCGGDMPVVQSLRNGDTSFGAFHHDIQTNGDVSRAFDTLAKALTPGESSACQSPEEGMEGSPHLIAGEPSFVEKEGPLLSESHVAFRLTMPSPMPEYLNVHYIGESASRLLFLSMHWALSIPSFQALGQENSISLVKAYWNELFTLGLAQCWQVMNVATILATFVNCLHSSLQQDKMSPERRKSLMEHIFKLQEFCNSMVKLCIDGHEYAYLKAIVLFSPDHPGLENMELIERFQEKAYVEFQDYITRTYPDDTYRLSRLLLRLPALRLMNATITEELFFKGLIGNVRIDSVIPHILKMEPADYNSQIIGHSL [K238A]
